Patent US20180369374A1 (published 2018)
One block for each binder: values may come before it.

Experiments:
[1] = target: T1, mCTLA-4-His (Life Technologies) (mouse, UniProt P09793 36-162, limits assumed); test: ELISA, HeLa supernatant on mCTLA-4-His-coated plates, HRP-goat anti-mouse IgG Fc detection
T1 construct: Bought reagent coated on ELISA plates; also called CTLA-4-coated plates; not shown: His tag
Protocol: The following mRNAs encoding anti-CTLA-4 antibody heavy and light chains (HC and LC mRNAs) were designed and assayed for expression by measuring both CTLA-4-bound antibody and total IgG produced (FIG. 1): (1) 9D9 VH:mIgG2a (IgG2a^a allele) plus 9D9 VL:mIgGk; and (2) 9D9 VH:mIgG2b plus 9D9 VL:mIgGk. HeLa cells were transfected in 6-well plates with mRNA formulated in Lipofectamine 2000. Cell supernatants were harvested at 18 hours post transfection. Supernatants were assayed for binding to CTLA-4-coated plates (mCTLA-4-His (Life Technologies)) and detection was with HRP-Goat anti-mouse IgG Fc, 1:10000 (JIR). Purified 9D9 antibody (BioXcell) was used for the standard curve in the CTLA-4-binding ELISA. The Mouse IgG total ELISA Ready-SET-Go® assay (eBioscience) was used for quantitating total mouse IgG, with a mouse IgG internal standard.

[2] = target: T2, OX40R on mouse CD4+ T-cells (mouse, UniProt P47741 20-272); test: cell-based or functional assay
T2 sequence (looked up): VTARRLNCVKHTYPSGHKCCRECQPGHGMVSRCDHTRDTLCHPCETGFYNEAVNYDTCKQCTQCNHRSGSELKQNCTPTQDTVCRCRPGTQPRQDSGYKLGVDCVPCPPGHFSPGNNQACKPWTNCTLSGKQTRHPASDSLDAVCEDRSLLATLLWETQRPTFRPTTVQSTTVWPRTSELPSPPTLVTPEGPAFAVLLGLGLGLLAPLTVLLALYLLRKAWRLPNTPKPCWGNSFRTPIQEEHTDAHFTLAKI

- binding result [1]: binds
B1: 9D9 IgG2a antibody (9D9 VH:mIgG2a (IgG2a^a allele) plus 9D9 VL:mIgGk), mRNA-encoded (antibody)
heavy: EAKLQESGPVLVKPGASVKMSCKASGYTFTDYYMNWVKQSHGKSLEWIGVINPYNGDTSYNQKFKGKATLTVDKSSSTAYMELNSLTSEDSAVYYCARYYGSWFAYWGQGTLITVSTAKTTAPSVYPLAPVCGDTTGSSVTLGCLVKGYFPEPVTLTWNSGSLSSGVHTFPAVLQSDLYTLSSSVTVTSSTWPSQSITCNVAHPASSTKVDKKIEPRGPTIKPCPPCKCPAPNLLGGPSVFIFPPKIKDVLMISLSPIVTCVVVDVSEDDPDVQISWFVNNVEVHTAQTQTHREDYNSTLRVVSALPIQHQDWMSGKEFKCKVNNKDLPAPIERTISKPKGSVRAPQVYVLPPPEEEMTKKQVTLTCMVTDFMPEDIYVEWTNNGKTELNYKNTEPVLDSDGSYFMYSKLRVEKKNWVERNSYSCSVVHEGLHNHHTTKSFSRTPGK
light: DIVMTQTTLSLPVSLGDQASISCRSSQSIVHSNGNTYLEWYLQKPGQSPKLLIYKVSNRFSGVPDRFSGSGSGTDFTLKISRVEAEDLGVYYCFQGSHVPYTFGGGTKLEIKRADAAPTVSIFPPSSEQLTSGGASVVCFLNNFYPKDINVKWKIDGSERQNGVLNSWTDQDSKDSTYSMSSTLTLTKDEYERHNSYTCEATHKTSTSPIVKSFNRNEC
notes: Full heavy and light chains expressed from mRNA in HeLa cells, tested as cell supernatant; The entries are whole ORFs and may include a signal peptide; also called HC-2Aa:LC; 9D9 2a

- binding result [1]: binds
B2: 9D9 IgG2b antibody (9D9 VH:mIgG2b plus 9D9 VL:mIgGk), mRNA-encoded (antibody)
heavy: EAKLQESGPVLVKPGASVKMSCKASGYTFTDYYMNWVKQSHGKSLEWIGVINPYNGDTSYNQKFKGKATLTVDKSSSTAYMELNSLTSEDSAVYYCARYYGSWFAYWGQGTLITVSTAKTTPPSVYPLAPGCGDTTGSSVTLGCLVKGYFPESVTVTWNSGSLSSSVHTFPALLQSGLYTMSSSVTVPSSTWPSQTVTCSVAHPASSTTVDKKLEPSGPISTINPCPPCKECHKCPAPNLEGGPSVFIFPPNIKDVLMISLTPKVTCVVVDVSEDDPDVQISWFVNNVEVHTAQTQTHREDYNSTIRVVSTLPIQHQDWMSGKEFKCKVNNKDLPSPIERTISKIKGLVRAPQVYILPPPAEQLSRKDVSLTCLVVGFNPGDISVEWTSNGHTEENYKDTAPVLDSDGSYFIYSKLNMKTSKWEKTDSFSCNVRHEGLKNYYLKKTISRSPGK
light: B1 light
notes: Full heavy and light chains expressed from mRNA in HeLa cells, tested as cell supernatant; The entries are whole ORFs and may include a signal peptide; also called HC-2B:LC; 9D9 2b

- mouse IL-2 production by CD4+ T-cells co-cultured with OX40L-expressing B16F10 cells (IL-2 ELISA), against mock-treated or non-translated mRNA control [2]: ~2 fold
B3: murine OX40L polypeptide expressed from mOX40L_miR122 on B16F10 cells (ligand)
chain: MEGEGVQPLDENLENGSRPRFKWKKTLRLVVSGIKGAGMLLCFIYVCLQLSSSPAKDPPIQRLRGAVTRCEDGQLFISSYKNEYQTMEVQNNSVVIKCDGLYIIYLKGSFFQEVKIDLHFREDHNPISIPMLNDGRRIVFTVVASLAFKDKVYLTVNAPDTLCEHLQINDGELIVVQLTPGYCAPEGSYHSTVNQVPL
